This series concerns the target VEE capsid protein (Venezuelan equine encephalitis virus, UniProt P09592 P09592:1-275). Kind of series: EMSA. Conditions: label: biotin. A general note: Mobility shift assays separate free from complexed probe on a gel.

Chain of VEE capsid protein (P09592 1-275, one chain of several): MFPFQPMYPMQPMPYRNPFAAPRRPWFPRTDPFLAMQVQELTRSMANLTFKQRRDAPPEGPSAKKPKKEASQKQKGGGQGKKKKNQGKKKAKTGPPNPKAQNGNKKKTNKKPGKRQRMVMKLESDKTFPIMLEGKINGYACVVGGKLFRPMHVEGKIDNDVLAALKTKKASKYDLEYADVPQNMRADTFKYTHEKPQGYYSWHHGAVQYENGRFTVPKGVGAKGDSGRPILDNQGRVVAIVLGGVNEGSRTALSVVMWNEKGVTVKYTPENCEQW

GGUUGCGCCCACACGCAAACACCGCCCUUCGACAUGAGGCCCGGC (ssRNA) [KLG_M_45]: the binding result is listed as “binds”. Next, GGGAGCUCAGAAUAAACGCUCAAGGCCCUUGCGCCCACACGCAAGC (ssRNA) [KLG_5_46]: “binds”.

Source of the values: US20060172925, “Thio-siRNA aptamers” (Board Of Regents, The University Of Texas System, published 2006).
